Results on three substances are retold here after US20160160263.

Series [1] relates to SNPYG-Y (SEQ ID NO: 23), MMP9 selective substrate.
For series [2], the system named is TIAH/LH, MMP2 selective substrate.
For series [3], the system named is SNPYK-Y (SEQ ID NO: 21), MMP9 selective substrate.
The subject of series [4] is RS-Q-G-(homoF)-YLY (SEQ ID NO: 71).
The subject of series [5] is T1, YGRAAA (SEQ ID NO: 17), uPA selective substrate.
T1 sequence: YGRAAA

MMP-9, sequence (chain, as listed by the source): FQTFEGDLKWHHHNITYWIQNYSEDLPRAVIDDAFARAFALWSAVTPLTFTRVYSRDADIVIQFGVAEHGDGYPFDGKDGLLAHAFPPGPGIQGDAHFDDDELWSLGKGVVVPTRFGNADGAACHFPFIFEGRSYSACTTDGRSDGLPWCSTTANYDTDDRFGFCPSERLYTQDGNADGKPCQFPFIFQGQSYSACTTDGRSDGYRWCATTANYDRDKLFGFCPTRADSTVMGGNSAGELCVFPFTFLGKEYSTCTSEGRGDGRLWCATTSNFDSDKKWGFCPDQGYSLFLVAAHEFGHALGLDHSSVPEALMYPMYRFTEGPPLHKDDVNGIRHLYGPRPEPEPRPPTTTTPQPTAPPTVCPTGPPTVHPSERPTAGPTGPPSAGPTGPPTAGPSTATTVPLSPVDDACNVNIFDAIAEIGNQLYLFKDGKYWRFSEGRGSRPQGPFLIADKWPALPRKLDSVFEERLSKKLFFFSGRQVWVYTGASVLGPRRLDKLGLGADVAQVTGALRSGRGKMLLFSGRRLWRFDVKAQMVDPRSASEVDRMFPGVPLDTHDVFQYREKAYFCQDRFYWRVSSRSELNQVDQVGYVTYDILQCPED

For the substance MMP-9, the “cleavage of ACPP substrate by protease (FAM/Cy5 ratiometric RACPP)” value in series [1] and in series [3] was “MMP9 selective substrates” throughout. Besides, in series [2], the “cleavage of ACPP substrate by protease” value was “selectively cleaved by MMP-2 versus 9 and 14”. MT2-MMP: the “cleavage of substrate by protease” value in series [4] is given as “Only RS-Q-G-(homoF)-YLY (SEQ ID NO: 71) shows significant cleavage by MT2-MMP”. urokinase plasminogen activator (uPA): the “cleavage of ACPP substrate by protease” value in series [5] is on record as “efficiently cleaved by uPA”.
